Reference: PMC9020777

How the values were obtained:
Assay in all cases: FRET or BRET
mCerulean3-BCL-2 (human) = mCerulean3-BCL-2 (human) (UniProt P10415)
mCerulean3-BCL-W (mouse) = mCerulean3-BCL-W (mouse) (UniProt P70345)
[1] = target: mCerulean3-BCL-XL (human) (UniProt Q07817)
Chain of mCerulean3-BCL-XL (human) (Q07817 whole entry): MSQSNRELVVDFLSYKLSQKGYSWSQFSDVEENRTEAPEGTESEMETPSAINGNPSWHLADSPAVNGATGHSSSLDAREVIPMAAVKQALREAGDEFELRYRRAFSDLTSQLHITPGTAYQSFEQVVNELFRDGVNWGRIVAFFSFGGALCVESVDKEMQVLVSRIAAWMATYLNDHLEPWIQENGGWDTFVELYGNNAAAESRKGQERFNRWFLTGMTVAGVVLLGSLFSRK

Chain of mCerulean3-BCL-2 (human) (P10415 whole entry): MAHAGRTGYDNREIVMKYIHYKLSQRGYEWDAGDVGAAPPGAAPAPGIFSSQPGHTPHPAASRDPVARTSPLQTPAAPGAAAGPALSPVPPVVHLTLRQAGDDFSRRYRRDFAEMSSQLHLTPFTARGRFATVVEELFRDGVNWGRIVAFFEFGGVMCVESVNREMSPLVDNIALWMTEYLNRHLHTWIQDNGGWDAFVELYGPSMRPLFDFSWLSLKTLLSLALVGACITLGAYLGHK
Chain of mCerulean3-BCL-W (mouse) (P70345 whole entry): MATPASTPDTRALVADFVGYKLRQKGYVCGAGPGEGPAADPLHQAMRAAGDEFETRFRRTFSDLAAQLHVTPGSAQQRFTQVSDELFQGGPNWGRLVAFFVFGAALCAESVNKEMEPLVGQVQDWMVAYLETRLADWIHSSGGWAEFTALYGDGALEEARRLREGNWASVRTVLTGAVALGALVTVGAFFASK

Substance: Venus-tBID (natural protein)
- Kd (mCerulean3-BCL-2 (human)): 3 µM
- Kd (mCerulean3-BCL-W (mouse)): 6 µM
- Kd [1]: 5 µM
